The text below walks through data of publication PMC3143821 (Molecular cell, 2011).

B1: PACT (natural protein, human, UniProt O75569 1-313, looked up)
chain: MSQSRHRAEAPPLEREDSGTFSLGKMITAKPGKTPIQVLHEYGMKTKNIPVYECERSDVQIHVPTFTFRVTVGDITCTGEGTSKKLAKHRAAEAAINILKANASICFAVPDPLMPDPSKQPKNQLNPIGSLQELAIHHGWRLPEYTLSQEGGPAHKREYTTICRLESFMETGKGASKKQAKRNAAEKFLAKFSNISPENHISLTNVVGHSLGCTWHSLRNSPGEKINLLKRSLLSIPNTDYIQLLSEIAKEQGFNITYLDIDELSANGQYQCLAELSTSPITVCHGSGISCGNAQSDAAHNALQYLKIIAERK
B2: TRBP (natural protein, human, UniProt Q15633 1-366, looked up)
chain: MSEEEQGSGTTTGCGLPSIEQMLAANPGKTPISLLQEYGTRIGKTPVYDLLKAEGQAHQPNFTFRVTVGDTSCTGQGPSKKAAKHKAAEVALKHLKGGSMLEPALEDSSSFSPLDSSLPEDIPVFTAAAAATPVPSVVLTRSPPMELQPPVSPQQSECNPVGALQELVVQKGWRLPEYTVTQESGPAHRKEFTMTCRVERFIEIGSGTSKKLAKRNAAAKMLLRVHTVPLDARDGNEVEPDDDHFSIGVGSRLDGLRNRGPGCTWDSLRNSVGEKILSLRSCSLGSLGALGPACCRVLSELSEEQAFHVSYLDIEELSLSGLCQCLVELSTQPATVCHGSATTREAARGEAARRALQYLKIMAGSK
B3: Argonaute2 (Ago2) (enzyme)
chain: not shown

Sequence of human Dicer (Q9UPY3 whole entry): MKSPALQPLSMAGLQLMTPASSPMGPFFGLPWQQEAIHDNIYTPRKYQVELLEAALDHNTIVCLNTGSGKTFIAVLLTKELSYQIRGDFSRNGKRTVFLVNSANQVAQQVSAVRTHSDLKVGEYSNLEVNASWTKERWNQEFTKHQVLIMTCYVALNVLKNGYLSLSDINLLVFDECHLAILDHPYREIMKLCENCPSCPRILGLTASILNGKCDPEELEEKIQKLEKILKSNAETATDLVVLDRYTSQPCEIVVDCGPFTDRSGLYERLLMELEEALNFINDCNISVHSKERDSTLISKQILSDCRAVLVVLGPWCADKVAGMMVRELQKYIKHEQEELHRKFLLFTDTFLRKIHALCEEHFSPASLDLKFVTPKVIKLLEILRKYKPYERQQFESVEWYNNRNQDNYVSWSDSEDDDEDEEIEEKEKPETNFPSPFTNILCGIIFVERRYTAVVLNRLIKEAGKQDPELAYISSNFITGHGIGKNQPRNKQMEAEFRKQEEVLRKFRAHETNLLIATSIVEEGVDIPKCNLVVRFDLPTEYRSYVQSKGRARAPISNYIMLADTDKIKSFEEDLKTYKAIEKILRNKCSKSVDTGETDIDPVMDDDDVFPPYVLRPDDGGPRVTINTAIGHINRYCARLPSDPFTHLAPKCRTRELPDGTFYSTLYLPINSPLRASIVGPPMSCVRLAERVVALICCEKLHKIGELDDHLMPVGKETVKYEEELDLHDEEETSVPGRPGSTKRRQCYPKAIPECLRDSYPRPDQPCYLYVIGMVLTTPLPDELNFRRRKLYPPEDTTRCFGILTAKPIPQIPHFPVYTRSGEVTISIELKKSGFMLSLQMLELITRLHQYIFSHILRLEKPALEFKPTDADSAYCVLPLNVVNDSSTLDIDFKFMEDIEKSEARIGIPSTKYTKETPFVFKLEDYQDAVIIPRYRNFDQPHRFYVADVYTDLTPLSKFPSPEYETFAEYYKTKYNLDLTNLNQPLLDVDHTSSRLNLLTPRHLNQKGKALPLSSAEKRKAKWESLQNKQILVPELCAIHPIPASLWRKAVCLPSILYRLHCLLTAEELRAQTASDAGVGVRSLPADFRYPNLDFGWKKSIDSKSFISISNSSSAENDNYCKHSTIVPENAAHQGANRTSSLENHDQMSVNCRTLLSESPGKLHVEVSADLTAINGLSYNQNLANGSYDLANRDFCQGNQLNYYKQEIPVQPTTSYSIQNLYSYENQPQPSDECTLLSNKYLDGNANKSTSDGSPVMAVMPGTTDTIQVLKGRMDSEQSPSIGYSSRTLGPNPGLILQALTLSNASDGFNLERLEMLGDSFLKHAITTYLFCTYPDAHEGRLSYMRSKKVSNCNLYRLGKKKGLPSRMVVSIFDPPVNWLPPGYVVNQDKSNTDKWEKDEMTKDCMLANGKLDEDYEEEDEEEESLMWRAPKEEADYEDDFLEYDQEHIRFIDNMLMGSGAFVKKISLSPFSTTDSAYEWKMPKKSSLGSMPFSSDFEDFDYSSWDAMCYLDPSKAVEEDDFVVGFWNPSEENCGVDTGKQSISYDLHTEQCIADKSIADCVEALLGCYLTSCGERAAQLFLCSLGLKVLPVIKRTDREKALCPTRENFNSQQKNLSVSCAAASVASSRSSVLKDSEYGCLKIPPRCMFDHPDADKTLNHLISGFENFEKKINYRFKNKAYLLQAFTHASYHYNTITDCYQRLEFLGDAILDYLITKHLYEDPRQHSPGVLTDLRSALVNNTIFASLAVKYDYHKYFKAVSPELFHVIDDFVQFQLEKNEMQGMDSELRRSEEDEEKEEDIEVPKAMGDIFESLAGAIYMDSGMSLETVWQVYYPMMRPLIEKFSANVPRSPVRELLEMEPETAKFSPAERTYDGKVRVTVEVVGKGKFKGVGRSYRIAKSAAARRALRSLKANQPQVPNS

The assay concerns the target human Dicer (human, UniProt Q9UPY3 1-1922). In words: in vitro reconstitution of the complex.
B1: the binding result is on record as “binds”.
The value for B2 was “binds”.
The result for B3 reads “binds”.
